Measurements taken from US20250264476A1, “AMINO ACID-SPECIFIC BINDER AND SELECTIVELY IDENTIFYING AN AMINO ACID” (Government of the United States of America, as represented …, priority 2021, published 2025).

Tested on: biotinylated peptides that vary only by their N-terminal amino acid
Assay: Bio-layer interferometry (BLI) binding of ClpS to biotinylated peptides on streptavidin probe
Conditions: ClpS at 0.312-40 μM in 20 mM HEPES pH 8, 150 mM KCl, 0.1% BSA, 0.05% Tween-20
Description: The initial binding activity of T. elongatus ClpS2 was characterized using bio-laver interferometry (BLI) In BLI, a functionalized fiber-optic probe is placed in a solution of analyte and the accumulation of analyte on the functional group of the probe is measured by changes in reflected light within the probe. A BLI probe functionalized with streptavidin is allowed to accumulate biotinylated peptide. Probes with peptide are then placed in solutions of ClpS of varying concentration and allowed to equilibrate. BLI response is then graphed to concentration to establish a binding curve. Dilutions of T. elongatus ClpS2 were made in 20 mM HEPES pH 8, 150 mM KCl, 0.1% BSA, and 0.05% Tween-20 at concentrations of 0.312, 0.625, 1.25, 2.5, 5, 10, 20, and 40 μM.
With regard to peptides, all peptides are named by indicating the first two residues, with the full sequence available in Table 3. All of the peptides had the same sequence for the C-terminal end of the peptide, XXAVECK (Sequence ID No. 18), where the N-terminal amino acids are varied. The peptides also contained a biotin linked via the lysine side chain on the C-terminal residue. X1G2 peptides started from a lyophilized form. Peptides were resuspended in 1×DPBS and diluted to the appropriate concentration into the experiment buffer. […]

Chain of biotinylated peptides that vary only by their N-terminal amino acid (as listed by the source): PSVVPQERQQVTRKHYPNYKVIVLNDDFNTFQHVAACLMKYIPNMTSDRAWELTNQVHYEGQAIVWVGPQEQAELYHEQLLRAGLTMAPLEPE

B1: T. elongatus ClpS2: wild-type ClpS protein, N-End Rule Pathway adaptor protein, parent of the engineered variants (protein, listed as Thermosynechococcus elongatus)
chain: ASVVPQEGQQVTRKHYPNYKVIVLNDDFNTFRHVAACLMKYIPNMTSDRAWELTNQVHYEGQAIVWVGPQEQAELYHEQLLRAGLTMAPLEPEGS
In the case of B1, the “binding preference across four peptides that vary only by their N-terminal amino acid” value is reported as “strong preference for binding leucine”.
